Test results published in publication PMC5770569.

B1: Purified EGFL7 (SPRimager II experiments and blocking study) (natural protein)
chain: YRPGRRVCAVRAHGDPVSESFVQRVYQPFLTTCDGHRACSTYRTIYRTAYRRSPGLAPARPRYACCPGWKRTSGLPGACGAAICQPPCRNGGSCVQPGRCRCPAGWRGDTCQSDVDECSARRGGCPQRCVNTAGSYWCQCWEGHSLSADGTLCVPKGGPPRVAPNPTGVDSAMKEEVQRLQSRVDLLEEKLQLVLAPLHSLASQALEHGLPDPGSLLVHSFQQLGRIDSLSEQISFLEEQLGSCSCKKDS

How the values were obtained:
[1] = biological target: Purified recombinant EGFL7 (Sino Biological Inc.) (human) (UniProt Q9UHF1); experiment: SPR
[2] = biological target: Fluorescein-labeled E7p72; experiment: flow cytometry on cells
[3] = biological target: E7p72, re-synthesized with a Cys for the SPR chip; experiment: SPR
[4] = biological target: E7p74, re-synthesized with a Cys for the SPR chip; experiment: SPR

| Molecule | koff [1] [s⁻¹] | percent decrease in the uptake of FITC-E7p72 by EA.hy926 cells with 3x EGFL7 [2] [%] | Kd [3] [µM] | Kd [4] [µM] |
| --- | --- | --- | --- | --- |
| A647-CPMV-PEG viral nanoparticle (control) | 0.00124 |  |  |  |
| B1 |  | 64.5 | 0.0132 | 0.0143 |
